IC50 data for one molecule are collected here from patent publication US20060014678A1 (IMPERIAL INNOVATIONS, published 2006).

No end group written: not given here.

The target of this assay is T1, NPY Y2 receptor.
T1 chain: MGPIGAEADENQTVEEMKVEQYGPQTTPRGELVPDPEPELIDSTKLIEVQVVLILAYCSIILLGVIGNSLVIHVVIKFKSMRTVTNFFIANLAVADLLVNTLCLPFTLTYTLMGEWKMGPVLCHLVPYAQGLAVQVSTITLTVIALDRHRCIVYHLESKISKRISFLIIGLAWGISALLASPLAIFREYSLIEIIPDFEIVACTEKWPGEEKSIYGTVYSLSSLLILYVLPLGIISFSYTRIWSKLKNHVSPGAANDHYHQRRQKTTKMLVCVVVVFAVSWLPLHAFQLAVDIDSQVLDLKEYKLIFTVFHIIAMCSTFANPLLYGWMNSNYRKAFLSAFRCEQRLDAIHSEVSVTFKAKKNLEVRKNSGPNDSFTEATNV
Put plainly: receptor-binding study on a cell line expressing the NPY Y2 receptor.

Ac-LRHYLNLLTRQRY (ends and bridges not checked, also called Y2A; Y2R selective agonist) [N-acetyl (Leu^28, Leu^31) NPY (24-36)] gave a concentration for half-maximal inhibition (IC50) of 1.3 nM.
